Test results reported in US20030130484A1, “Inhibitors and disassemblers of fibrillogenesis” (priority 2001, published 2003).
Like-named read-outs stand apart in the source and are kept apart here.

Tests used:
[1] = target: human Aβ1-40 peptide (human); assay: cell-based or functional assay
[2] = target: human Aβ1-40 peptide (human); assay: cell-based or functional assay; remark: listed apart in the source
Aβ16-22m = assay: size exclusion chromatography, self-association

KLVFF (modifications not checked) [Aβ16-20e]
Inhibition IC50 (thioflavin T assay) (inhibitor:Aβ1-40 ratio) [1]: 3.7
Inhibition ICmax [1]: 100%

KLVFF (modifications not checked) [Aβ16-20m]
Inhibition IC50 (thioflavin T assay) (inhibitor:Aβ1-40 ratio) [1]: 6.9
Inhibition IC50 (thioflavin T fluorescence) (inhibitor to Aβ40 molar ratio) [2]: 6.5
Inhibition ICmax [2]: 100%
Inhibition of Fibrilogenesis IC50 (µM) [2]: 0.4 µM
Inhibition of Fibrilogenesis ICmax (%) [2]: 100%

KLVFFAE (modifications not checked) [Aβ16-22m]
IC50 of inhibition of fibrillogenesis (thioflavin fluorescence) (inhibitor:Aβ40 ratio) [2]: 4
Inhibition of Fibrillogenesis IC50 (thioflavin fluorescence) (inhibitor:Aβ40 molar ratio) [2]: 4.2
Inhibition of Fibrillogenesis ICmax [2]: 100%
Inhibition of Fibrilogenesis IC50 (µM) [2]: 4.2 µM
Inhibition of Fibrilogenesis ICmax (%) [2]: 100%
molar excess giving complete elimination of thioflavin fluorescence (fold molar excess) [2]: 30
percent oligomer (% oligomer (at 0.1 mg/ml)) (Aβ16-22m): 1 to 91
percent oligomer (% oligomer (at 6 mg/ml)) (Aβ16-22m): 1 to 91

KLVFF (modifications not checked) [Aβ16-20]
Inhibition IC50 (thioflavin T assay) (inhibitor:Aβ1-40 ratio) [1]: 9.7
Inhibition ICmax [1]: 100%
Inhibition IC50 (thioflavin T fluorescence) (inhibitor to Aβ40 molar ratio) [2]: 5.3
Inhibition ICmax [2]: 89%

ELVFFAK (modifications not checked) [Aβ16-22mR]
IC50 of inhibition of fibrillogenesis (thioflavin fluorescence) (inhibitor:Aβ40 ratio) [2]: 9
Inhibition of Fibrillogenesis IC50 (thioflavin fluorescence) (inhibitor:Aβ40 molar ratio) [2]: 7.8
Inhibition of Fibrillogenesis ICmax [2]: 100%
Inhibition of Fibrilogenesis IC50 (µM) [2]: 7.8 µM
Inhibition of Fibrilogenesis ICmax (%) [2]: 100%
ratio giving complete elimination of thioflavin fluorescence (inhibitor:Aβ40 ratio) [2]: 50
